Data as given in patent publication US20200308244A1 (ORIONIS BIOSCIENCES, published 2020).
Where two headings read alike, the source gives them in different places.

Tests used:
Assay in all cases: cell-based or functional assay
[1] = molecular target: T1, type I interferon-α/β receptor (IFNAR), composed of the IFNAR1 and IFNAR2 subunits (human) (UniProt P17181)
T1 sequence (looked up) 1: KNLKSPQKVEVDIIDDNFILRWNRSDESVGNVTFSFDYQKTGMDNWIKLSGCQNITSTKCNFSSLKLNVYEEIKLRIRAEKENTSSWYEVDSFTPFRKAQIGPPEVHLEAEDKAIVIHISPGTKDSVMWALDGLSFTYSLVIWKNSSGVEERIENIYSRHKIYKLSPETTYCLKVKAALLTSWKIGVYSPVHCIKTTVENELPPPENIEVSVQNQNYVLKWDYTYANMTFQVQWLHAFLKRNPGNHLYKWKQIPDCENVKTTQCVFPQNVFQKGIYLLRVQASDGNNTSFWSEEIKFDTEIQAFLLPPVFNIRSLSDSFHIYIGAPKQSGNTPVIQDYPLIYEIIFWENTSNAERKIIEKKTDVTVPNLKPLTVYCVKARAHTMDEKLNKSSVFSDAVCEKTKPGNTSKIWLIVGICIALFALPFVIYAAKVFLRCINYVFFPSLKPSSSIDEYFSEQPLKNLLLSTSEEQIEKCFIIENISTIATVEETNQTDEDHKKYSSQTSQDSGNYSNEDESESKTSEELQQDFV
T1 sequence (looked up) 2: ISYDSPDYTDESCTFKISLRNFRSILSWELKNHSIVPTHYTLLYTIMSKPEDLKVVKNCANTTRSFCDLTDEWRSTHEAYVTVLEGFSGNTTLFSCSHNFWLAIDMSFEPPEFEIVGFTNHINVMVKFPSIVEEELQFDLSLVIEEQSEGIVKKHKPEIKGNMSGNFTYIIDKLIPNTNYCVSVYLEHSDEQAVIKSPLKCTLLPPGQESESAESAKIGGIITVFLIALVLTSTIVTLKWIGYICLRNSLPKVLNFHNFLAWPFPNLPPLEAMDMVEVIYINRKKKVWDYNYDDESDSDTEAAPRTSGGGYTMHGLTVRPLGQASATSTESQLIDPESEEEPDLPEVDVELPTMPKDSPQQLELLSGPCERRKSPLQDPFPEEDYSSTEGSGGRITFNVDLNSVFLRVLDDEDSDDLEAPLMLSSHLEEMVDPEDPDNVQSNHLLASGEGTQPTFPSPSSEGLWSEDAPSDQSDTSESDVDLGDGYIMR

[2] = molecular target: T1, type I interferon-α/β receptor (IFNAR), composed of the IFNAR1 and IFNAR2 subunits (human); remark: listed apart in the source
[3] = molecular target: T2, type I interferon-α/β receptor (IFNAR), composed of the IFNAR1 and IFNAR2 subunits (human, UniProt P17181 28-557; P48551 27-515)
T2 sequence (looked up) 1: T1 sequence (looked up) 1
T2 sequence (looked up) 2: T1 sequence (looked up) 2

wild type IFNα2a (Example 7) (from UniProt P01563 24-188) (ligand)
EC50 6-16 reporter activity, HL116 [1]: 8 pM
EC50 6-16 reporter activity, HL116-CLEC9A [1]: 6 pM

B1: wild type interferon alpha 1 (IFNα1) (ligand)
chain: CDLPETHSLDNRRTLMLLAQMSRISPSSCLMDRHDFGFPQEEFDGNQFQKAPAISVLHELIQQIFNLFTTKDSSAAWDEDLLDKFCTELYQQLNDLEACVMQEERVGETPLMNADSILAVKKYFRRITLYLTEKKYSPCAWEVVRAEIMRSLSLSTNLQERLRRKE
EC50 6-16 reporter activity, HL116 [2]: 105 pM
EC50 6-16 reporter activity, HL116 (Exp 1) [2]: 2.38 ng/mL
EC50 6-16 reporter activity, HL116-CLEC9A [2]: 84 pM
EC50 6-16 reporter activity, HL116-huCD20 (Exp 1) [2]: 3.25 ng/mL
EC50 of luciferase (6-16 reporter) induction in HL116-CLEC9A cells [2]: 1.6 ng/mL
EC50 of luciferase (6-16 reporter) induction in parental HL116 cells [2]: 2 ng/mL
EC50 pSTAT1 in PBMC's, CD20 negative (Exp 1) [2]: 7.51 ng/ml
EC50 pSTAT1 in PBMC's, CD20 negative (Exp 2) [2]: 6.77 ng/ml
EC50 pSTAT1 in PBMC's, CD20 positive (Exp 1) [2]: 3.97 ng/ml
EC50 pSTAT1 in PBMC's, CD20 positive (Exp 2) [2]: 2.72 ng/ml
fold decrease in potency in 6-16 reporter induction relative to IFNα2 [2]: 10 to 15 fold
ratio CD20 neg/pos of EC50 6-16 reporter activity (Exp 1) [2]: 0.7
ratio CD20 neg/pos of EC50 pSTAT1 in PBMC's (Exp 1) [2]: 2
ratio CD20 neg/pos of EC50 pSTAT1 in PBMC's (Exp 2) [2]: 2.5
ratio of EC50 6-16 reporter activity, HL116 / HL116-CLEC9A [2]: 1.2

B2: CD20 VHH-(GGS)20-hIFNα1-His6 (other)
chain: QVQLQESGGGLAQAGGSLRLSCAASGRTFSMGWFRQAPGKEREFVAAITYSGGSPYYASSVRGRFTISRDNAKNTVYLQMNSLKPEDTAVYYCAANPTYGSDWNAENWGQGTQVTVSSVDGGSGGSGGSGGSGGSGGSRSGGSGGSGGSGGSGGSGGSGGSGGSGGSGGSGGSGGSGGSAAACDLPETHSLDNRRTLMLLAQMSRISPSSCLMDRHDFGFPQEEFDGNQFQKAPAISVLHELIQQIFNLFTTKDSSAAWDEDLLDKFCTELYQQLNDLEACVMQEERVGETPLMNADSILAVKKYFRRITLYLTEKKYSPCAWEVVRAEIMRSLSLSTNLQERLRRKELEHHHHHH
EC50 6-16 reporter activity, HL116-huCD20 (Exp 1) [3]: 0.0241 ng/mL
EC50 pSTAT1 in PBMC's, CD20 positive (Exp 1) [3]: 0.114 ng/ml
EC50 pSTAT1 in PBMC's, CD20 positive (Exp 2) [3]: 0.085 ng/ml
